Consider 5 substances from US10723806B2, “Method of introducing nucleic acid into plant cells” (RIKEN, priority 2012, dated 2020).

Ends that are not written are not given here.

Data set [1] has as its system Nicotiana benthamiana leaf. In words: In-vivo transfection of tobacco leaf with RLuc-encoding pDNA complex, Renilla luciferase assay. As to conditions: for RLuc expression (relative photometric unit/protein weight): peptide alone as carrier of pDNA, N/P ratio 0.5, 12 hours, benthamiana tobacco leaf; for transfection efficiency (RLuc assay) compared to complexes having other N/P ratios: N/P ratio 0.5, tobacco leaf; for incubation time showing the highest transfection efficiency: tobacco leaf, sampled 12 to 144 hours. As to the method: In-vivo transfection experiment using the tobacco leaf was performed to evaluate an ability of a carrier peptide-pDNA complex to deliver a gene into plant cells through a cell wall. Complexes of pDNA encoding RLuc and GFP serving as a reporter gene with R9-BP 100 and (KH)9-BP100 were directly allowed to permeate into Nicotiana benthamiana leaf. To determine the most efficient N/P ratio of a pDNA complex in the range of 0.1 to 20, a transfection efficiency is quantitatively characterized by use of RLuc assay.
A target plant was prepared as follows. Seeds of benthamiana tobacco were germinated in a pot containing a culture medium, which is a mixture of a soil (Pro-Mix) and vermiculite in a ratio of 2:1. The benthamiana tobacco plant was grown up to three weeks in a plant incubator (Biotron NK System) under constant light irradiation for 24 hours at a temperature of 29° C.
Leaves of benthamiana tobacco were sufficiently spread and directly impregnated with a solution (about 100 μL) of a complex comprising pDNA encoding green fluorescence protein (GFP) and Renilla luciferase (RLuc) by use of a syringe without a needle. The benthamiana tobacco plants thus treated were incubated in a plant incubator separately at a temperature of 29° C. and 21° C. under constant light irradiation for 16 hours per day until 6 days. To quantitatively evaluate RLuc gene expression, Renilla luciferase assay (Promega) was performed in accordance with the protocol provided by a manufacturer (n=4).
To be described in brief, sampling of the leaf impregnated was performed periodically in the range of 12 hours to 144 hours by cutting a square (1 cm^2) around an impregnated section. The samples each were lysed by use of Renilla Luciferase Assay Lysis Buffer (Promega). The lysate was briefly centrifuged and the supernatant was mixed with Renilla Luciferase Assay Substrate and Renilla Luciferase Assay Buffer (Promega). Gene expression was evaluated by a multi-mode microplate reader (Spectra MAX M3, Molecular Devices Corporation) based on the intensity (relative photometric unit) of photoluminescence. The amount of protein in the supernatant was determined by BCA protein assay (Pierce Biotechnology) to obtain a relative photometric unit/protein weight (RLU/mg). A transformant with RLuc gene-encoding pDNA via Agrobacterium (Agrobacterium) was used as a positive control in the experiment.
The statistical difference in transfection efficiency was determined by independent t-test using bilateral distribution. It was regarded that a statistically-significant difference is present at p<0.05. The data obtained in a cell survivability experiment are shown as an average±a standard deviation (n=4).

The nature of data set [2]: Dynamic light scattering (DLS) size and PDI of carrier peptide-pDNA complexes. The class given is physicochemical. To be noted: complex with pDNA. As to the method: Ionic complexes of carrier peptides (R9-BP100 and (KH)9-BP100) different in N/P ratio and pDNA encoding a reporter gene were prepared and characterized by use of dynamic light scattering (DLS), an atomic force microscope (AFM), a zeta potential meter and agarose gel electrophoresis. The N/P ratio herein refers to the ratio of the number of amine groups from the carrier peptide and the number of phosphate groups from pDNA.
(§1) Two types of pDNA, i.e., green fluorescence protein (GFP)-encoding P35S-GFP (S65T)-TNOS and Renilla luciferase (RLuc)-encoding P35S-RLuc-TNOS, were used as reporter genes. All pDNA molecules were amplified in a competent DH5α E. coli (Takara) and purified by an Endofree Plasmid Giga Kit (Qiagen). To prepare a carrier peptide-pDNA complex, a carrier peptide (0.5 g/L) was mixed with a pDNA solution (about 1.0 mg/mL) so as to have different N/P ratios (0.5, 1, 2, 5, 10 and 20) at 25° C. Immediately after mixing, complexes were characterized by a zeta potential meter (Zetasizer Nano-ZS, Malvern Instruments Ltd) and an atomic force microscope (Seiko Instruments).
(§2) Solutions containing complexes each were diluted with ultra-pure water (MilliQ) up to a final volume of 800 μL and subjected to measurement of zeta potential and size. The zeta potential and zeta shift of the solution samples were measured three times by a zeta potential meter and averages of data were obtained by use of Zetasizer software ver 6.20 (Malvern Instruments Ltd). Dynamic light scattering (DLS) was performed to determine hydrodynamic diameters. Subsequently, polydispersion indexes (PDI) were determined by use of a zeta nanosizer (Zetasizer software ver 6.20) using He—Ne laser (633 nm) at 25° C. and a backscattering detection angle of 173°. Observation by an AFM was performed by fixing a complex solution on cut mica and using a silicon cantilever in air at room temperature in a tapping mode at a spring constant of 1.3 N/m. A cantilever tip rotation effect was obtained by calculation and true dimensions of complexes were obtained by the method previously reported (K. Numata, Y. Kikkawa, T. Tsuge et al., Macromol Biosci 6 (1), 41, 2006; K. Numata, T. Hirota, Y. Kikkawa et al., Biomacromolecules 5 (6), 2186, 2004). For gel retardation assay, each sample (40 μL) containing 1.0 μg of pDNA was mixed with a loading buffer, analyzed on a 1% agarose gel (TAE buffer, 100 V, 30 minutes) and stained with ethidium bromide.

The nature of data set [3]: Zeta potential of carrier peptide-pDNA complexes. The format is physicochemical. As to conditions: pDNA complex. As to the method: as §1, §2
In a further data set the test system is pDNA. Nature of the data set: Gel retardation assay (agarose gel electrophoresis) of carrier peptide-pDNA complexes. The format is physicochemical. As to conditions: pDNA complex. As to the method:
as §2

The test system of the next data set is Arabidopsis thaliana L. In words: Introduction of giant DNA (80 kbp luciferase plasmid) into Arabidopsis thaliana L. The format is in vivo. To be noted: complex with 80 kbp luciferase plasmid, twelve hours after introduction. As to the method:
A plasmid (80 kbp) encoding luciferase was prepared by use of Bacillus subtilis and introduced into Arabidopsis thaliana L. by use of a carrier peptide ((KH)9-BP100). Twelve hours after introduction of the complex, luciferase was extracted from the leaf and subjected to quantitative analysis.

The test system of data set [4] is mitochondria of leaf of Arabidopsis thaliana L. In words: Organelle selective gene introduction, Renilla luciferase expression in mitochondria of Arabidopsis thaliana L. leaf. As to conditions: complex with pDONRcox2p: rluc/gfp. The class given is in vivo. How it is done:
A carrier peptide comprising a mitochondrial transit sequence (Cytochrome c oxidase subunit IV (yeast)) and a polycationic sequence was synthesized. In other words, ([…]) (SEQ ID NO: 43) was synthesized by the solid phase peptide synthesis. The mitochondrial transit sequence is represented by MLSLRQSIRFFK (SEQ ID NO: 44) and the polycationic sequence is represented by KHKHKHKHKHKHKHKHKH) (SEQ ID NO: 22). Then, a complex was prepared from the carrier peptide synthesized and a plasmid vector (pDONRcox2p: rluc/gfp) that can function in mitochondria. In the same manner as in the above Examples, the complex was introduced into a leaf of Arabidopsis thaliana L. and expression of a reporter gene (Renilla Luciferase) in the mitochondria was quantitatively evaluated. Using a promoter (cox) which specifically functions in mitochondria, whether the complex was specifically introduced into the mitochondria was determined.

[5] abbreviates: N/P ratio within the range of 2 to 20.

In the case of “KHKHKHKHKHKHKHKHKH [(KH)9, reference compound]”, the “RLuc expression (relative photometric unit/protein weight)” value in data set [1] is 340±60 RLU/mg.
For the substance “KHKHKHKHKHKHKHKHKHKKLFKKILKYL-NH2 [(KH)9-BP100, tested as ionic complex with pDNA]”, the PDI in data set [2] (N/P ratio 0.5) was 0.31; in data set [2] (N/P ratio 1), 0.30; in data set [2] (N/P ratio 2), 0.23; in data set [2] (N/P ratio 5), 0.23; in data set [2] (N/P ratio 10), 0.23; in data set [2] (N/P ratio 20) it was 0.24. Moreover, the “Size (average hydrodynamic diameter, DLS)” value is 291 nm in data set [2] (N/P ratio 0.5); 322 nm in data set [2] (N/P ratio 1); 139 nm in data set [2] (N/P ratio 2); 106 nm in data set [2] (N/P ratio 5); 96 nm in data set [2] (N/P ratio 10); 114 nm in data set [2] (N/P ratio 20). Further, the zeta potential result in data set [3] (N/P ratio of 0.5 and 1) is “negative values”; in data set [3] (setting [5]), “positive values”. Further, the “mobility of pDNA in agarose gel electrophoresis” value in the data set with pDNA (N/P ratio up to 10) is on record as “a small amount of pDNA migrated”. The “transfection efficiency (RLuc assay) compared to complexes having other N/P ratios” value in data set [1] (pDNA complex) is recorded as “highest transfection efficiency”. Moreover, in data set [1] (pDNA complex), the “incubation time showing the highest transfection efficiency” value turned out to be 12 h. In the data set on Arabidopsis thaliana L., the “luciferase activity in leaf” value was “efficient luciferase activity was confirmed”.
Regarding “KKLFKKILKYL [BP100, cell-penetrating peptide alone, synthesized for controls, reference compound]”, in data set [1], the “RLuc expression (relative photometric unit/protein weight)” value is listed as 120±70 RLU/mg.
Consider “MLSLRQSIRFFKKHKHKHKHKHKHKHKHKH [SEQ ID NO: 43]”, for which the “gene introduction efficiency to mitochondria (Rluc) among N/P=0.5, 1 and 2” value in data set [4] is “a highly significant difference was shown”.
“RRRRRRRRRKKLFKKILKYL-NH2 [R9-BP100, tested as ionic complex with pDNA]”: the PDI in data set [2] (N/P ratio 0.5) was 0.34; in data set [2] (N/P ratio 1), 0.38; in data set [2] (N/P ratio 2), 0.21; in data set [2] (N/P ratio 5), 0.21; in data set [2] (N/P ratio 10), 0.23; in data set [2] (N/P ratio 20), 0.25. Moreover, the “Size (average hydrodynamic diameter, DLS)” value in data set [2] (N/P ratio 0.5) is given as 319 nm; in data set [2] (N/P ratio 1) it was 321 nm; in data set [2] (N/P ratio 2), 151 nm; in data set [2] (N/P ratio 5) it was 127 nm; in data set [2] (N/P ratio 10), 114 nm; in data set [2] (N/P ratio 20), 116 nm. Also, the zeta potential result in data set [3] (N/P ratio of 0.5 and 1) is “negative values”; in data set [3] (setting [5]), “positive values”. Also, the “mobility of pDNA in agarose gel electrophoresis” value with pDNA (N/P ratio of 0.5 to 2) is “the same mobility as that of a free pDNA”; with pDNA (N/P ratio of 10 and 20), “no mobility was observed”. In data set [1] (pDNA complex), the “transfection efficiency (RLuc assay) compared to complexes having other N/P ratios” value is “highest transfection efficiency”. Also, in data set [1] (pDNA complex, compared to (KH)9-BP100), the time-dependent transfection behavior result was “quick and short transfection behavior”. The “incubation time showing the highest transfection efficiency” value in data set [1] (pDNA complex) is 12 h.
